Data as given in patent US20070148185A1.

Legend:
[1] = target: heparan sulfate proteoglycans (HSPG) expressed on the surface of HepG2 human liver cells (human); assay: 100 nM protein on HepG2 cells pretreated with Heparinase I 2.50 U/ml, against non-treated cells
[2] = target: heparan sulfate proteoglycans (HSPG) expressed on the surface of HepG2 human liver cells (human); assay: 100 nM protein on HepG2 cells pretreated with Heparinase I 5.00 U/ml, against non-treated cells
[3] = target: heparan sulfate proteoglycans (HSPG) expressed on the surface of HepG2 human liver cells (human); assay: 100 nM protein on HepG2 cells pretreated with Heparinase I 1.25 U/ml, against non-treated cells
[4] = target: heparan sulfate proteoglycans (HSPG) expressed on the surface of HepG2 human liver cells (human); assay: HepG2 cell binding assay with soluble heparin as competitive inhibitor
[5] = target: heparan sulfate proteoglycans (HSPG) expressed on the surface of HepG2 human liver cells (human); assay: cell-based or functional assay
[6] = target: heparan sulfate proteoglycans (HSPG) expressed on the surface of HepG2 human liver cells (human); assay: binding of His-tagged protein to fixed HepG2 cells, anti-polyhistidine detection

recombinant Circumsporozoite (CS) protein with a polyhistidine tag at the carboxyl terminus
Inhibition of Binding (%) [1]: 57.7% | Inhibition of Binding (%) [2]: 59.1% | Inhibition of Binding (%) [3]: 48.1%

B1: Plasmodium falciparum Fasciclin Related Adhesive Protein (FRAP), recombinant full length protein (amino acids 1-205) with C-terminal polyhistidine tag (protein)
chain: MKNRFYYNLIIKRLYTRSGGLRKPQKVTNDPESINRKVYWCFEHKPVKRTIINLIYSHNELKIFSNLLNHPTVGSSLIHELSLDGPYTAFFPSNEAMQLINIESFNKLYNDENKLSEFVLNHVTKEYWLYRDLYGSSYQPWLMYNEKREAPEKLRNLLNNDLIVKIEGEFKHCNHSIYLNGSKIIRPNMKCHNGVVHIVDKPIIF
Inhibition of Binding (%) [1]: 42.1% | reduction of binding activity in the presence of free heparin [4]: 55% | Inhibition of Binding (%) [2]: 47.8% | % Inhibition of invasion of HepG2 cells by P. falciparum sporozoites, FRAP at 10 µg/ml [5]: 80.9% | % Inhibition of invasion of HepG2 cells by P. falciparum sporozoites, FRAP at 20 µg/ml [5]: 89.5% | Inhibition of Binding (%) [3]: 39.4%

B2: FRAP2, truncated P. falciparum FRAP containing amino acids 1-87, with C-terminal polyhistidine tag (protein)
chain: MKNRFYYNLIIKRLYTRSGGLRKPQKVTNDPESINRKVYWCFEHKPVKRTIINLIYSHNELKIFSNLLNHPTVGSSLIHELSLDGPY
Inhibition of Binding (%) [1]: 41.4% | loss of binding activity in comparison to the full length protein [6]: 50% | reduction of binding activity in the presence of free heparin [4]: 60% | Inhibition of Binding (%) [2]: 49.4% | % Inhibition of invasion of HepG2 cells by P. falciparum sporozoites, FRAP2 at 10 µg/ml [5]: 88.1% | % Inhibition of invasion of HepG2 cells by P. falciparum sporozoites, FRAP2 at 20 µg/ml [5]: 92.4% | Inhibition of Binding (%) [3]: 42.3%
